Measured values from paper PMC7356358 (Biomolecules, 2020).
Like-named read-outs stand apart in the source and are kept apart here.

Assays:
DnaK = DnaK (Escherichia coli, UniProt P0A6Y8); details: MP-SPR, PfHsp40 over immobilized DnaK, three runs
[1] = ATPase activity (released inorganic phosphate); type: biochemical; details: PfHsp40 preparation alone, non-ATPase control
Procedure: Hsp70 proteins at final concentration of 0.4 μM were each incubated for 5 min in buffer HKMD (10 mM HEPES-KOH pH 7.5, 100 mM KCl, 2 mM MgCl2 and 0.5 mM DTT). The reaction was initiated by the addition of ATP at various concentrations (0–5 mM) and samples were analyzed every 30 min for 4 h.

KPf = details: MP-SPR, PfHsp40 over immobilized KPf, three runs
Procedure: The analysis was conducted both in the absence and presence of 5 mM of ATP/ADP. The ligand and analyte pairs were swapped, and the data generated were analyzed after global fitting. Association was allowed for 2 min, and dissociation was monitored for 8 min. Data analysis was conducted using TraceDrawer software version 1.8 (Ridgeview Instruments).

PfHsp70-1 = test: Interaction of PfHsp40 with PfHsp70-1 by MP-SPR; type: binding, Plasmodium falciparum
PfHsp70-1, sequence (P11144 1-630 limits assumed): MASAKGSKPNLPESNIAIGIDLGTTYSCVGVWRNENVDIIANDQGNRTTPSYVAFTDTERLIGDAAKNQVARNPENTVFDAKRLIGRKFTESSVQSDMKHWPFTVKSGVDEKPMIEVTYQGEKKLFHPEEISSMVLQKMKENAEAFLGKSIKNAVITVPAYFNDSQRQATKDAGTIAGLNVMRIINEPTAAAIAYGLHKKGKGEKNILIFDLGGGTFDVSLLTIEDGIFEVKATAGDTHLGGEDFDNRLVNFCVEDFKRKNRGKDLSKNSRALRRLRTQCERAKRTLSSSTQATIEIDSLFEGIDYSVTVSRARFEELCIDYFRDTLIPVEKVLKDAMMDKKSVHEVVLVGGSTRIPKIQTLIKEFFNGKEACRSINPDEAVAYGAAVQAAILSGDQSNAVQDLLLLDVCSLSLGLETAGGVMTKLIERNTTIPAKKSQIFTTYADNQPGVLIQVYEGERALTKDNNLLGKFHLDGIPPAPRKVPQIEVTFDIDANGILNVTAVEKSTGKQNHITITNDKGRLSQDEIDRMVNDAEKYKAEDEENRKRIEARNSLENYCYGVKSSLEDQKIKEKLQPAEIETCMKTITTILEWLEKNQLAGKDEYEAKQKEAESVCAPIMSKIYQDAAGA

DnaK, sequence (P0A6Y8 whole entry): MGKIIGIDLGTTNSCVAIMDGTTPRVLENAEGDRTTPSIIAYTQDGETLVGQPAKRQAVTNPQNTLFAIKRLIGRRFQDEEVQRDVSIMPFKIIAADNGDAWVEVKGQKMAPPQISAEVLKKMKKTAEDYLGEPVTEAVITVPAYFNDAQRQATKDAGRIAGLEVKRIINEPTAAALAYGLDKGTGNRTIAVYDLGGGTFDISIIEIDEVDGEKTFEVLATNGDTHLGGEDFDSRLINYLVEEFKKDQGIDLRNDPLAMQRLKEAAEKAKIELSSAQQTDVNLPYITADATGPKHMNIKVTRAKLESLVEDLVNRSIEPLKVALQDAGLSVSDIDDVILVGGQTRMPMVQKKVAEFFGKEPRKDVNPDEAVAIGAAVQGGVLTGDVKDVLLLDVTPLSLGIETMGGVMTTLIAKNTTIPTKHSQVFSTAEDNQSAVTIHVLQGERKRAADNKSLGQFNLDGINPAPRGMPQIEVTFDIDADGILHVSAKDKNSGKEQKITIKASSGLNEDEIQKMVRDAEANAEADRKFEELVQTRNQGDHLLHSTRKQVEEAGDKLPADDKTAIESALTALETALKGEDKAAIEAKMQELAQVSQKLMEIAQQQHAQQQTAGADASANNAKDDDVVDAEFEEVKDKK
KPf, sequence (P11144 405-631 limits assumed): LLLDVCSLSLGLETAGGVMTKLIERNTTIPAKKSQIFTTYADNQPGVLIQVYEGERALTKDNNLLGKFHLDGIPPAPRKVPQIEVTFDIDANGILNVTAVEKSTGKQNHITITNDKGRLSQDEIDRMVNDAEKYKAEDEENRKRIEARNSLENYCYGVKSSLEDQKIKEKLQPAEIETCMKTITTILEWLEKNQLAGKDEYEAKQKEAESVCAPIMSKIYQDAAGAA

B1: PfHsp40: P. falciparum type I Hsp40 (PF3D7_1437900), co-chaperone of PfHsp70-1 (protein)
chain: MFFSSGFPFDSMGGQQARRKREVNNNKFYEVLNLKKNCTTDEVKKAYRKLAIIHHPDKGGDPEKFKEISRAYEVLSDEEKRKLYDEYGEEGLENGEQPADATDLFDFILNAGKGKKKRGEDIVSEVKVTLEQLYNGATKKLAISKDIICTNCEGHGGPKDAKVDCKQCNGRGTKTYMRYHSSVLHQTEVTCNTCRGKGKIFNEKDKCANCKGMCVLKTRKIIEVYIPKGAPNKHKIVFNGEADEKPNVITGNLVVILNEKQHPVFRREGIDLFMNYKISLYESLTGFVAEVTHLDERKILVNCTNSGFIRHGDIREVLDEGMPTYKDPFKKGNLYITFEVEYPMDLIITNENKEVLKILKKQNEVEKKYDLENSELEVVSCSPVDKEYIKVRVTKQQQQQQQEAYDDEDHQPEMEGGRVACAQQ
modifications: left off: His6, N-terminal, state not stated
DnaK; + 5 mM ADP
  Ka: 1.16 (±0.06) × 10^2 Ms^−1
DnaK; + 5 mM ATP
  Ka: 1.22 (±0.02) × 10^2 Ms^−1
DnaK; no nucleotide
  Ka: 1.12 (±0.02) × 10^2 Ms^−1
[1]
  independent basal ATPase activity: no detectable
KPf; + 5 mM ADP
  Ka: 1.36 (±0.26) × 10^2 Ms^−1
KPf; + 5 mM ATP
  Ka: 1.72 (±0.02) × 10^2 Ms^−1
KPf; no nucleotide
  Ka: 1.24 (±0.04) × 10^4 Ms^−1
PfHsp70-1; PfHsp40 over immobilized PfHsp70-1, + 5 mM ADP, three runs
  Ka: 1.53 (±0.03) × 10^3 Ms^−1
PfHsp70-1; PfHsp40 over immobilized PfHsp70-1, no nucleotide, three runs
  Ka: 1.33 (±0.03) × 10^3 Ms^−1
PfHsp70-1; analyte PfHsp40 0-2000 nM over immobilized PfHsp70-1, + 5 mM ATP, global fit, mean (SD) of three runs
  Ka: 1.81 (±0.01) × 10^2 Ms^−1
